Columns and labels:
[1] = molecular target: neonatal Fc receptor (FcRn) (Human) (UniProt P55899); assay: SPR at pH 6.0, steady state fit
[2] = molecular target: FcγR2a R167 (UniProt P12318); assay: SPR, steady state fit, second of two runs
[3] = molecular target: FcγR2B/C (UniProt P31994); assay: SPR, steady state fit
[4] = molecular target: FcγR2a H167 (UniProt P12318); assay: SPR, steady state fit
[5] = molecular target: FcγR3A 176V (UniProt P08637); assay: SPR, steady state fit
[6] = molecular target: FcγR3A 176F (UniProt P08637); assay: SPR, steady state fit
FcγR3A 176F, sequence (P08637 17-208): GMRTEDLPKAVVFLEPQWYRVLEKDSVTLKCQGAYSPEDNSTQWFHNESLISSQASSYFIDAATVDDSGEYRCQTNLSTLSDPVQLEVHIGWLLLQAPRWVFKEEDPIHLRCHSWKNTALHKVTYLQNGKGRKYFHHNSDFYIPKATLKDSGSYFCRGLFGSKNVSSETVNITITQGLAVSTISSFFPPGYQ

[7] = molecular target: neonatal Fc receptor (FcRn) (Human) (UniProt P55899); assay: SPR at pH 6.0, kinetic fit
[8] = molecular target: FcγR2a R167 (UniProt P12318); assay: SPR, kinetic fit, first of two runs
[9] = molecular target: biotinylated SARS-CoV-2 spike RBD (Ancestral) (SARS-CoV-2) (UniProt P0DTC2); assay: AlphaLISA, inhibition of ACE2-muFc / biotinylated spike complex
[10] = molecular target: neonatal Fc receptor (FcRn) (Human) (UniProt P55899); assay: SPR at pH 6.0, experimental Rmax / theoretical Rmax
[11] = molecular target: FcγR2B/C (UniProt P31994); assay: SPR, experimental Rmax / theoretical Rmax
[12] = molecular target: Fc-gamma Receptor 1 (FcγR1) (UniProt P12314); assay: SPR, experimental Rmax / theoretical Rmax
Fc-gamma Receptor 1 (FcγR1), sequence (P12314 16-288): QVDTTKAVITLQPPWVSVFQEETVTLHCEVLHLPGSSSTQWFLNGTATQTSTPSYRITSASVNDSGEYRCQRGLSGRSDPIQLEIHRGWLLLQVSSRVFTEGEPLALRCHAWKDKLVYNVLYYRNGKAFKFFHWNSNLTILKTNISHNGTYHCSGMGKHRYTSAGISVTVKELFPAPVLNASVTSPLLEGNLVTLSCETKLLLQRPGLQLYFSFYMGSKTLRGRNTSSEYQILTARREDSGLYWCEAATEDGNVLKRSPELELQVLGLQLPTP

[13] = molecular target: FcγR3A 176F (UniProt P08637); assay: SPR, experimental Rmax / theoretical Rmax
[14] = molecular target: FcγR2a R167 (UniProt P12318); assay: SPR, steady state fit, first of two runs
[15] = molecular target: Fc-gamma Receptor 1 (FcγR1) (UniProt P12314)
[16] = molecular target: FcγR2B/C (UniProt P31994); assay: SPR, kinetic fit
[17] = molecular target: FcγR2a H167 (UniProt P12318); assay: SPR, kinetic fit
[18] = molecular target: FcγR3A 176V (UniProt P08637); assay: SPR, kinetic fit
[19] = molecular target: FcγR3A 176F (UniProt P08637); assay: SPR, kinetic fit
[20] = molecular target: FcγR2a R167 (UniProt P12318); assay: SPR, kinetic fit, second of two runs

FcγR2B/C, sequence (P31994 46-217): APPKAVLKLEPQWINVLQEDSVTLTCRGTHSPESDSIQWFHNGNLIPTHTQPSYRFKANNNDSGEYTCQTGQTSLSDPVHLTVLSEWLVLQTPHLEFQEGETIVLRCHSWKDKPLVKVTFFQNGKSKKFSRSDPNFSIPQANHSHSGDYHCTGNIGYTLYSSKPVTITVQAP
neonatal Fc receptor (FcRn) (Human), sequence (P55899 24-297): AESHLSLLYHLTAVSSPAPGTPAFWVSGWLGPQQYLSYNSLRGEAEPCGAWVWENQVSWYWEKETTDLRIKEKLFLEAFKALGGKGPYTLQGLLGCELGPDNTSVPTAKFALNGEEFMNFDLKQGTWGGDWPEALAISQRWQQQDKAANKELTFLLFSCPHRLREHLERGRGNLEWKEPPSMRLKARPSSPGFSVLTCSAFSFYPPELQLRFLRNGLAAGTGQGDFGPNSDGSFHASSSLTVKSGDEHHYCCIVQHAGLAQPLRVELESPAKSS
FcγR2a R167, sequence (P12318 36-218 H167R): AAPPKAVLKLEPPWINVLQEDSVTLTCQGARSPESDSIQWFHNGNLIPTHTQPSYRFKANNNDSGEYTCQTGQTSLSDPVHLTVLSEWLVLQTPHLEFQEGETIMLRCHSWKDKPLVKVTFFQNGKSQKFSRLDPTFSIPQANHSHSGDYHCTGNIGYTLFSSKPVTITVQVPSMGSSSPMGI
FcγR2a H167, sequence (P12318 36-218): as the sequence (P12318 36-218 H167R) above, with R132H counted along it
FcγR3A 176V, sequence (P08637 17-208 F176V): as the sequence (P08637 17-208) above, with F160V counted along it

Substance: anti-RBD neutralizing monoclonal antibody (human IgG1) from Acro Biosystems (SAD-S35)
- Kd [1]: 86.5 nM
- Kd [2]: 640 nM
- Kd [3]: 1590 nM
- Kd [4]: 537 nM
- Kd [5]: 210 nM
- Kd [6]: 796 nM
- Kd [7]: 81.1 nM
- Kd [8]: 596 nM
- IC50 [9]: 6.8 nM
- % Activity [10]: 116%
- % Activity [11]: 93%
- % Activity [12]: 120%
- % Activity [13]: 92%
- Kd [14]: 636 nM
- Kd [15]: 0.46 nM
- Kd [16]: 1360 nM
- Kd [17]: 462 nM
- Kd [18]: 161 nM
- Kd [19]: 1110 nM
- Kd [20]: 650 nM

Source: patent US20230002478A1
